The text below walks through data of the supplement of paper PMC9112550, “Optimization of the antimicrobial peptide Bac7 by deep mutational scanning” (BMC Biology, 2022).
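Also: peptides expressed intracellularly from a pBAD plasmid library in pooled LB shake-flask culture, induced with 0.3% L-arabinose, DNA abundance read by NGS, three biological replicates, DESeq2 with apeglm shrinkage.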

The data set deals with Escherichia coli TOP10. Description: shrunken log2 fold change of peptide-encoding DNA abundance (4.5 h post-induction vs induction); higher = less antimicrobial activity (less host growth inhibition). The note with it: time post-induction: 4.5 h; library: site-saturation at positions 5, 18, 19, 20.
As to RRIRLRPPRLPRPRPRPAQHPRP, the “shrunken log2 fold change” value is -0.132.
Regarding RRIRGRPPRLPRPRPRPWLMPRP, the “shrunken log2 fold change” value came to 0.428.
Regarding RRIRTRPPRLPRPRPRPLLIPRP, the “shrunken log2 fold change” value was -0.0383.
With RRIRQRPPRLPRPRPRPIGAPRP, the “shrunken log2 fold change” value is -0.0217.
As for RRIRCRPPRLPRPRPRPFIGPRP, the “shrunken log2 fold change” value is -0.228.
Take RRIRHRPPRLPRPRPRPPCEPRP: the “shrunken log2 fold change” value was 0.00703.
In the case of RRIRRRPPRLPRPRPRPNSWPRP it was -0.0571; in that of RRIRQRPPRLPRPRPRPQCHPRP, -0.0344.
RRIRQRPPRLPRPRPRPPDLPRP: the “shrunken log2 fold change” value is 0.404.
With RRIRQRPPRLPRPRPRPEMLPRP the figure was 0.0554; with RRIRQRPPRLPRPRPRPYHHPRP, -0.186.
Consider RRIRPRPPRLPRPRPRPHEKPRP, for which the “shrunken log2 fold change” value was -0.0384.
RRIRYRPPRLPRPRPRPRKAPRP: the “shrunken log2 fold change” value worked out at 0.00796.
In the case of RRIRFRPPRLPRPRPRPTRIPRP it was 0.0179; in that of RRIRTRPPRLPRPRPRPLMYPRP, -0.736; in that of RRIRMRPPRLPRPRPRPMISPRP, -0.0256.
Take RRIRHRPPRLPRPRPRPAKNPRP: the “shrunken log2 fold change” value was -0.207.
With RRIRGRPPRLPRPRPRPYRWPRP, the “shrunken log2 fold change” value came out at 0.191.
Turning to RRIRARPPRLPRPRPRPHWIPRP, the “shrunken log2 fold change” value is -0.277.
Turning to RRIRKRPPRLPRPRPRPDTGPRP, the “shrunken log2 fold change” value was -0.0244.
On to RRIRWRPPRLPRPRPRPHTSPRP, for which the “shrunken log2 fold change” value is -0.672.
As to RRIRERPPRLPRPRPRPANLPRP, the “shrunken log2 fold change” value was -0.254.
In the case of RRIRVRPPRLPRPRPRPAWHPRP it was 0.657; in that of RRIRDRPPRLPRPRPRPEHVPRP, 0.212; in that of RRIRVRPPRLPRPRPRPVLRPRP, 0.187.
As to RRIRCRPPRLPRPRPRPYGIPRP, the “shrunken log2 fold change” value is -0.128.
As to RRIRMRPPRLPRPRPRPYMFPRP, the “shrunken log2 fold change” value was -0.493.
With RRIRKRPPRLPRPRPRPKFPPRP, the “shrunken log2 fold change” value is 0.134.
On to RRIRHRPPRLPRPRPRPMLHPRP, for which the “shrunken log2 fold change” value stood at 0.195.
With RRIRFRPPRLPRPRPRPTWHPRP the figure was -0.0992; with RRIRMRPPRLPRPRPRPMYMPRP, 0.0751.
With RRIRFRPPRLPRPRPRPSPSPRP, the “shrunken log2 fold change” value amounted to 0.12.
With RRIRGRPPRLPRPRPRPYVHPRP the figure was -0.142; with RRIRARPPRLPRPRPRPAVKPRP, 0.233; with RRIRRRPPRLPRPRPRPSRDPRP, 0.303.
RRIRCRPPRLPRPRPRPVWGPRP: the “shrunken log2 fold change” value was -0.0554.
For the sequence RRIRHRPPRLPRPRPRPELFPRP, the “shrunken log2 fold change” value turned out to be 0.458.
Regarding RRIRCRPPRLPRPRPRPRREPRP, the “shrunken log2 fold change” value is 0.746.
For the sequence RRIRMRPPRLPRPRPRPKVTPRP, the “shrunken log2 fold change” value stood at 0.209.
On to RRIRIRPPRLPRPRPRPRLTPRP, for which the “shrunken log2 fold change” value is -0.0559.
In the case of RRIRPRPPRLPRPRPRPPEGPRP it was 0.436; in that of RRIRRRPPRLPRPRPRPPPNPRP, 0.951.
With RRIRQRPPRLPRPRPRPFEEPRP the figure was -0.138; with RRIRCRPPRLPRPRPRPVYWPRP, 0.134.
On to RRIRMRPPRLPRPRPRPIEVPRP, for which the “shrunken log2 fold change” value was -0.00822.
As to RRIRDRPPRLPRPRPRPVENPRP, the “shrunken log2 fold change” value was -0.127.
As to RRIRRRPPRLPRPRPRPPSHPRP, the “shrunken log2 fold change” value amounted to 0.586.
Turning to RRIRPRPPRLPRPRPRPLREPRP, the “shrunken log2 fold change” value was determined as 0.783.
In the case of RRIRYRPPRLPRPRPRPTEEPRP it was -0.2.
As for RRIRQRPPRLPRPRPRPQQDPRP, the “shrunken log2 fold change” value was 0.206.
With RRIRCRPPRLPRPRPRPWKDPRP, the “shrunken log2 fold change” value amounted to 0.00196.
With RRIRHRPPRLPRPRPRPMAYPRP the figure was -0.0524; with RRIRMRPPRLPRPRPRPIWHPRP, -0.0798; with RRIRPRPPRLPRPRPRPSHMPRP, -0.466.
Consider RRIRGRPPRLPRPRPRPEKTPRP, for which the “shrunken log2 fold change” value was -0.0522.
Turning to RRIRRRPPRLPRPRPRPMIAPRP, the “shrunken log2 fold change” value is 0.121.
In the case of RRIRDRPPRLPRPRPRPSLFPRP it was 0.205; in that of RRIRYRPPRLPRPRPRPRPKPRP, 0.374.
Regarding RRIRTRPPRLPRPRPRPARNPRP, the “shrunken log2 fold change” value was found to be 0.199.
For the sequence RRIRNRPPRLPRPRPRPLSCPRP, the “shrunken log2 fold change” value is -0.238.
On to RRIRGRPPRLPRPRPRPQQQPRP, for which the “shrunken log2 fold change” value worked out at 0.843.
As for RRIRGRPPRLPRPRPRPDVQPRP, the “shrunken log2 fold change” value stood at 1.69.
For the sequence RRIRDRPPRLPRPRPRPETEPRP, the “shrunken log2 fold change” value was -0.0111.
In the case of RRIRSRPPRLPRPRPRPKGLPRP it was -0.0223.
As to RRIRGRPPRLPRPRPRPRKEPRP, the “shrunken log2 fold change” value is 0.363.
In the case of RRIRPRPPRLPRPRPRPLYCPRP, the “shrunken log2 fold change” value was -0.548.
Consider RRIRWRPPRLPRPRPRPNIGPRP, for which the “shrunken log2 fold change” value turned out to be 0.138.
With RRIRTRPPRLPRPRPRPYPYPRP the figure was -0.0787; with RRIRFRPPRLPRPRPRPYSTPRP, 0.0586; with RRIRGRPPRLPRPRPRPKDDPRP, 0.293.
Regarding RRIRKRPPRLPRPRPRPWNAPRP, the “shrunken log2 fold change” value amounted to 0.0384.
In the case of RRIRARPPRLPRPRPRPDNWPRP it was 0.283; in that of RRIRQRPPRLPRPRPRPYMGPRP, -0.00992; in that of RRIRKRPPRLPRPRPRPKARPRP, 0.0808.
Regarding RRIRERPPRLPRPRPRPDCIPRP, the “shrunken log2 fold change” value was 0.0113.
As for RRIRHRPPRLPRPRPRPVKLPRP, the “shrunken log2 fold change” value was -0.438.
As for RRIRARPPRLPRPRPRPIRSPRP, the “shrunken log2 fold change” value is -0.129.
With RRIRNRPPRLPRPRPRPNLTPRP the figure was -0.335; with RRIRDRPPRLPRPRPRPSVHPRP, -0.258.
With RRIRVRPPRLPRPRPRPEQLPRP, the “shrunken log2 fold change” value is 0.185.
On to RRIRRRPPRLPRPRPRPWFFPRP, for which the “shrunken log2 fold change” value stood at 0.08.
On to RRIRQRPPRLPRPRPRPFRCPRP, for which the “shrunken log2 fold change” value was -0.0452.
Consider RRIRTRPPRLPRPRPRPMPVPRP, for which the “shrunken log2 fold change” value turned out to be 0.0572.
As for RRIRQRPPRLPRPRPRPIMAPRP, the “shrunken log2 fold change” value was -0.0123.
With RRIRLRPPRLPRPRPRPMPEPRP, the “shrunken log2 fold change” value is 0.221.
Regarding RRIRERPPRLPRPRPRPMVYPRP, the “shrunken log2 fold change” value is -0.119.
Consider RRIRERPPRLPRPRPRPFILPRP, for which the “shrunken log2 fold change” value was -0.784.
In the case of RRIRHRPPRLPRPRPRPFPIPRP it was 0.0165; in that of RRIRMRPPRLPRPRPRPSYEPRP, -0.293; in that of RRIRVRPPRLPRPRPRPAEVPRP, 0.00588.
With RRIRPRPPRLPRPRPRPKAYPRP the figure was -0.029.
As for RRIRGRPPRLPRPRPRPKLQPRP, the “shrunken log2 fold change” value turned out to be 0.991.
Consider RRIRIRPPRLPRPRPRPAFAPRP, for which the “shrunken log2 fold change” value turned out to be 0.207.
Regarding RRIRMRPPRLPRPRPRPCIAPRP, the “shrunken log2 fold change” value was found to be 0.099.
Regarding RRIRNRPPRLPRPRPRPAYTPRP, the “shrunken log2 fold change” value is -0.262.
In the case of RRIRERPPRLPRPRPRPDTYPRP it was 0.0491; in that of RRIRCRPPRLPRPRPRPIMAPRP, -0.236.
Regarding RRIRTRPPRLPRPRPRPTKEPRP, the “shrunken log2 fold change” value was -0.0327.
With RRIRVRPPRLPRPRPRPYFQPRP the figure was -0.649.
On to RRIRWRPPRLPRPRPRPTKKPRP, for which the “shrunken log2 fold change” value was found to be 0.0726.
As for RRIRWRPPRLPRPRPRPIGNPRP, the “shrunken log2 fold change” value was found to be 0.137.
On to RRIRLRPPRLPRPRPRPKFQPRP, for which the “shrunken log2 fold change” value was -0.113.
For RRIRSRPPRLPRPRPRPCVCPRP, the “shrunken log2 fold change” value amounted to 0.0568.
Regarding RRIRIRPPRLPRPRPRPHYEPRP, the “shrunken log2 fold change” value is -0.618.
RRIRPRPPRLPRPRPRPIQKPRP: the “shrunken log2 fold change” value was 0.115.
As for RRIRLRPPRLPRPRPRPEPNPRP, the “shrunken log2 fold change” value is 0.0389.
Regarding RRIRGRPPRLPRPRPRPPMRPRP, the “shrunken log2 fold change” value was determined as 1.39.
With RRIRMRPPRLPRPRPRPPDRPRP the figure was 1.26; with RRIRKRPPRLPRPRPRPEWAPRP, 0.604.
Turning to RRIRQRPPRLPRPRPRPLYYPRP, the “shrunken log2 fold change” value was 0.614.
For RRIRERPPRLPRPRPRPCSIPRP, the “shrunken log2 fold change” value is -0.471.
As for RRIRSRPPRLPRPRPRPEKVPRP, the “shrunken log2 fold change” value was -0.1.
For RRIRARPPRLPRPRPRPPAWPRP, the “shrunken log2 fold change” value stood at 0.621.
With RRIRTRPPRLPRPRPRPKPMPRP the figure was 0.0287; with RRIRCRPPRLPRPRPRPPFFPRP, 0.449; with RRIRERPPRLPRPRPRPMCNPRP, -0.0237.
Turning to RRIRCRPPRLPRPRPRPMVCPRP, the “shrunken log2 fold change” value was -0.143.
Take RRIRIRPPRLPRPRPRPIEVPRP: the “shrunken log2 fold change” value is -0.0018.
With RRIRYRPPRLPRPRPRPRKLPRP the figure was -0.14.
For the sequence RRIRERPPRLPRPRPRPHEEPRP, the “shrunken log2 fold change” value came to 0.13.
Turning to RRIRDRPPRLPRPRPRPVQFPRP, the “shrunken log2 fold change” value is -0.0196.
In the case of RRIRMRPPRLPRPRPRPHIIPRP, the “shrunken log2 fold change” value is -0.991.
Take RRIRIRPPRLPRPRPRPVDMPRP: the “shrunken log2 fold change” value is -0.51.
For the sequence RRIRVRPPRLPRPRPRPMKFPRP, the “shrunken log2 fold change” value was -0.124.
Consider RRIRIRPPRLPRPRPRPPEKPRP, for which the “shrunken log2 fold change” value was -0.0181.
